± gives the uncertainty stated by the source.
Assay: amyloid nucleation score (Sup35N fusion, yeast selection) (log enrichment); library NNK1; higher = more nucleation; inactive = no reads after selection
How it was run: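 Libraries of peptides of 20 random codons fused to Sup35N were expressed in psi-negative yeast and induced 24 hours with 100 μM copper sulfate. Selection was 7 days at 30°C on medium lacking adenine and uracil, and plasmid inserts were Illumina-sequenced before and after selection. Nucleation score is the DiMSum log enrichment of output over input reads, centred on the mode score of non-aggregating sequences, and sequences with under 100 input reads were left out.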

In order of falling amyloid nucleation score:
1. HSFIYYWC  7.49 ± 0.051
2. MNIVIHIPNMRMAAKD  7.17 ± 0.08
3. SGHTVVMVMNMCCVSFHLRC  6.562 ± 0.048
4. IIGSIGYVKVSCDQAVRFQL  5.01 ± 0.076
5. FSCFLMEISKGRGH  4.18 ± 0.11
6. SVSYRDCVVKILK  4 ± 0.074
7. TYSPQLLYNYPLCLVFLSCL  2.83 ± 0.15
8. TGQLDV  1.75 ± 0.58
9. RLWSRPSS  1.14 ± 0.79
10. PRYMTLGVVWSMSGWSESVQ  1.04 ± 0.52
11. VDLPFMLAKVR  0.856 ± 0.71
12. WRVNVEVKYFAEKTVQECWV  0.817 ± 0.23
13. HRIITCPFTSWNH  0.816 ± 0.54
14. MWHGSVTMGGIRGTRDSVHQ  0.792 ± 0.53
15. DFFRSANMYLGFASGGEGNG  0.77 ± 0.52
16. DHIEMFGKVGYYHNMILW  0.762 ± 0.37
17. SAYPCCLSEDYVSSSGVSNK  0.74 ± 0.48
18. HHFAYWCIVWPE  0.728 ± 0.54
19. LGSRFMRV  0.635 ± 1.2
20. ARFMSLTRSSACETNVGVYL  0.608 ± 0.32
21. RPMYHGYHMH  0.483 ± 0.38
22. NCSLILTTKRNRWYLQRLRF  0.467 ± 0.33
23. VLSEVDWLSIFHGWMFGVRC  0.434 ± 1.4
24. FMPMNVSNKTSELRYFCNGP  0.417 ± 0.74
25. IKLFARGGI  0.39 ± 0.59
26. CLGNNSFGDLGI  0.368 ± 0.34
27. INDESFWDCIVPNRMKGFSG  0.325 ± 0.42
28. REVSMRDGGPVT  0.298 ± 0.54
29. YWVWYDVYGSWLGSWYYKRG  0.278 ± 0.52
30. TAKRLAT  0.21 ± 0.8
31. MACRSPEGLEYMKN  0.209 ± 0.46
32. FKSVGLTWALRGRINKTYLE  0.195 ± 0.21
33. IKHFGISTR  0.17 ± 0.79
34. IGSLGMCLQCYGAGV  0.147 ± 1.2
35. LDWAWFYCSRNKRFSTILFR  0.138 ± 0.79
36. MLARKRMLNLLLRGWAYSWT  0.09 ± 0.49
37. CVSATRV  0.042 ± 0.48
38. IGMVSVSC  0.037 ± 1.2
39. VFYDVGGVSD  0.03 ± 0.48
40. VGFNKL  0.013 ± 0.6
41. IRVFLLSCQTEKLGSVGVRS  -0.007 ± 0.41
42. PHSMYCGETWLSLDCQMQFM  -0.009 ± 0.74
43. KSMKGRSLRLRLKRDPRKVA  -0.051 ± 0.4
44. VAWLNCSTKVGL  -0.053 ± 1.3
45. LFVLKTWLRNSDWFRYDESQ  -0.094 ± 0.68
46. GKLSCYPCTGCL  -0.109 ± 1.4
47. MQWWVGYAIITEN  -0.119 ± 0.56
48. LSALFLVPHYLDMVNLHSWR  -0.254 ± 0.44
49. NCGVYIVYQKRLQAVGYCAN  -0.312 ± 0.3
50. FRRLRMLLILASKFGVD  -0.392 ± 0.34
51. VIASELSSCFSLRHNVVTTS  -0.469 ± 1.2
52. SHFFLIT  -0.48 ± 1.5
53. GYGYFSIVTTRMIVGVHVKC  -0.509 ± 0.57
54. GIRPEN  -0.521 ± 0.49
55. SNVDSWFGRVTSA  -0.698 ± 0.33
56. SIVRTDDIARLSLMLGRRSV  -0.724 ± 0.56
57. RQQMTRTCVNDGS  -1.02 ± 2.4
58. ATQLAFSMILSAAVYFLKVV  -1.33 ± 1.7
59. PERNNEYHVMLTRHRCHQGC  -1.41 ± 2.4
60. LYKKICKALSYIMDLTRVLP  -1.54 ± 2.1
61. KFVYEGSGHQVILYVTLMGY  -1.59 ± 0.84
62. CPNIEKPSLLST  -2.01 ± 2.4

With GTSESLGYYSVLRMDIYFGS the amyloid nucleation score was “inactive”.
For DTVYDFTMPAWYDYMFWTKW, the amyloid nucleation score was “inactive”.
In the case of TVSLGEQFLFTIAVGYGDSD, the amyloid nucleation score is reported as “inactive”.
